For 1 substance, Ka (binding affinity, printed in nM) results are on record in patent US5981262.

This assay has as its target phosphopeptide of SEQ ID NO: 32, containing the PI3K ligand pY.V.P.M.L. (SEQ ID NO: 31). Briefly: SPR (BIAcore); phosphopeptide immobilized via its C-terminal lysine, SH2 peptide injected at 0.5, 0.67, 1.0, 2.0 and 4.0 uM. For orientation: Surface plasmon resonance follows binding to a sensor surface in real time, without labels.

In turn, N-terminal SH2 peptide of the PI3K p85 returned a Ka (binding affinity, printed in nM) of 160 nM.
